Our source for the Kd values is PMC10073072 (2023).

Assay [1] has as its target METTL9^M6 (METTL9^46–318 with six mutations) (human, UniProt Q9H1A3 46-318). Kind of assay: ITC. On the technique in general: Isothermal titration calorimetry measures the heat released or taken up as one component is titrated into another.
The next assay has as its target METTL9^46–318 (human, UniProt Q9H1A3 46-318). Put plainly: ITC.

The term Kd denotes a measure of binding affinity in units of concentration.

Sequence of METTL9^M6 (METTL9^46–318 with six mutations) (Q9H1A3 other isoform, or with tags, fused parts or gaps): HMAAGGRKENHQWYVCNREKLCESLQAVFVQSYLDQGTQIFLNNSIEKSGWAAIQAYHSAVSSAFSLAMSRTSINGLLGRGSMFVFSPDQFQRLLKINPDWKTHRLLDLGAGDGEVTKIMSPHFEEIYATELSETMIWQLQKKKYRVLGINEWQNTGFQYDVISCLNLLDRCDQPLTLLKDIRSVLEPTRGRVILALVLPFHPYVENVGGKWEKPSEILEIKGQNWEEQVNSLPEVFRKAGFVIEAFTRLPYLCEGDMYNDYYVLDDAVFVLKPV
Sequence of METTL9^46–318 (Q9H1A3 46-318): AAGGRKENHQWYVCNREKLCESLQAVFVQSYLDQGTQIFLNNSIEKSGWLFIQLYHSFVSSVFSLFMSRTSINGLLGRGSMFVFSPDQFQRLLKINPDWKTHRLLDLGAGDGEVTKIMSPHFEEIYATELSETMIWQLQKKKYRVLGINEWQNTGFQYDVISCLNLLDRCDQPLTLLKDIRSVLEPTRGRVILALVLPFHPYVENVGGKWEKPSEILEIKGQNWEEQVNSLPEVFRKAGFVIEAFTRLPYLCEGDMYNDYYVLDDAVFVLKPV

As to GHQGHSHGHQGGY [SLC39A5^369–380 peptide], the Kd was found to be 9 µM in assay [1] and 9.3 µM with METTL9^46–318.

Turning to RGHGHSHGKGC [mouse S100A9^101–111 peptide], the results for the Kd (in assay [1]; with METTL9^46–318) were 3.6 µM and 2.3 µM, respectively.
